Source: patent publication US20130121915A1

Assays:
[1] = tested on: wild type OprD (FadL-OprD with C-terminal two glycines and 6 histidines)
[2] = target: FhuA7/10-1 with histidine tag; test: cell-based or functional assay
[3] = target: T1, FhuA7/10-1 with histidine tag
T1 chain: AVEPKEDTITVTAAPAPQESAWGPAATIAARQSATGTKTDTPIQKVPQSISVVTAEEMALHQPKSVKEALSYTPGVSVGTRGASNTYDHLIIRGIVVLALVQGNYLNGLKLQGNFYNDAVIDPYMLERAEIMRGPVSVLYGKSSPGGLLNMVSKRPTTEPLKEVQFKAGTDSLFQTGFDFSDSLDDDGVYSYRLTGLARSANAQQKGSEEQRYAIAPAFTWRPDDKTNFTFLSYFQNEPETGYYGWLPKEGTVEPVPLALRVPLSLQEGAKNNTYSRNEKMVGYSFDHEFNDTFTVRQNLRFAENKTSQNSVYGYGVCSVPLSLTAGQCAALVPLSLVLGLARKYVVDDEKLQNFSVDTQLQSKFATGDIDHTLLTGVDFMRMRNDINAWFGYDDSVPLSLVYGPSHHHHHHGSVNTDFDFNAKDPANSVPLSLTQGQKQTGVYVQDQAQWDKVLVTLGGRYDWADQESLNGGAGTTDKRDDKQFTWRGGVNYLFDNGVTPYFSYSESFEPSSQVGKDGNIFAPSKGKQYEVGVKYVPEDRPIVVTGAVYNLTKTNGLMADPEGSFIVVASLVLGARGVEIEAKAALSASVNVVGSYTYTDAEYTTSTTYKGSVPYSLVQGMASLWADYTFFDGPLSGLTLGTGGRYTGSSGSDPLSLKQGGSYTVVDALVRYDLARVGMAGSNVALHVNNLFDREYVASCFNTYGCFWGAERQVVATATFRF

[4] = target: T2, OprD mutant L8 mmp7turk#3
T2 chain: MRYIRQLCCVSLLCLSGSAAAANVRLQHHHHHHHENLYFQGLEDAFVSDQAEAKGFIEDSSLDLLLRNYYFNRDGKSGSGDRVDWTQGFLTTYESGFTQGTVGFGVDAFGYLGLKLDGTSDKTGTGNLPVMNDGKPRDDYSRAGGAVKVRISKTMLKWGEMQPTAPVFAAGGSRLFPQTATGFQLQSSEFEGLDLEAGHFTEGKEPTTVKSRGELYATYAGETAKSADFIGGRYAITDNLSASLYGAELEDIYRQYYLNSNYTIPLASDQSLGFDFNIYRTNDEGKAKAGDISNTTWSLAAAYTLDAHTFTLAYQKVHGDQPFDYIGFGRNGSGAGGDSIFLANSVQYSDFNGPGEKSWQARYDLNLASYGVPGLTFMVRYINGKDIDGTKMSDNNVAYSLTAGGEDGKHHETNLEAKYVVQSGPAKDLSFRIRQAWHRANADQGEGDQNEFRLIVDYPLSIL

[5] = target: T3, native OPRD pseudomonas aeruginosa beta barrel channel polypeptide, expressed with surface antigen D15 signal peptide and a tag
T3 chain: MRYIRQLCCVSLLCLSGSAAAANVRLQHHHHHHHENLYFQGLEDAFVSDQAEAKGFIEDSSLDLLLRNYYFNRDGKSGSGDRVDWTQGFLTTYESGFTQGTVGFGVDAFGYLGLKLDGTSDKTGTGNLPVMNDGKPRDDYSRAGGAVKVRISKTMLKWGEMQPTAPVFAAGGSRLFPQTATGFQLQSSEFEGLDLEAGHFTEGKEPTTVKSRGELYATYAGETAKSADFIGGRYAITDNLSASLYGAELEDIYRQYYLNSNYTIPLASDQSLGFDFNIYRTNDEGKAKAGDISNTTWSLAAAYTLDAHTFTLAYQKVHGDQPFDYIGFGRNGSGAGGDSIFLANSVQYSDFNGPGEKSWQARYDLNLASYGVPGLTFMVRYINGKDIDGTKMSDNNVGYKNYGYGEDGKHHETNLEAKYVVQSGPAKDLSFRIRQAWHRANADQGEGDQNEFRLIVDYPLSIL

[6] = target: T4, wild type OprD (FadL-OprD with C-terminal two glycines and 6 histidines)
T4 chain: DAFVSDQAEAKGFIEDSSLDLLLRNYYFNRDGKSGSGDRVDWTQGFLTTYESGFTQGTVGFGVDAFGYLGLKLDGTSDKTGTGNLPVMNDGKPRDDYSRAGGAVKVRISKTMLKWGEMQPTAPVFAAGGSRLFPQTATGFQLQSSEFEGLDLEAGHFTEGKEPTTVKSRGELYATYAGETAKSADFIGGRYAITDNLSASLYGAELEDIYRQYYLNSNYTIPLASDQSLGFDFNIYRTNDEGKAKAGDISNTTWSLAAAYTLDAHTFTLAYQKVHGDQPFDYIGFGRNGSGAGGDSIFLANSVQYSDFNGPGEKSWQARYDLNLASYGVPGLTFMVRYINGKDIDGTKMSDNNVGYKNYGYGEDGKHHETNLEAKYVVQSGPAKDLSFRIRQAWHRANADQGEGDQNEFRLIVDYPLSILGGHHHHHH

factor Xa (Novagen, cat#69036-3)
proteolysis over time, gel bands (OprD mutant L8fxa#1): incubation of factor X with mutant L8fxa#1 (SEQ ID NO: 22788) shows specific cleavage, since bands “a” and “b” become more apparent with time
proteolysis over time, gel bands [1]: Incubation of Factor X enzyme with the wild type OPRD yields a few non specific bands

enterokinase (Novagen, cat#69066-3)
proteolysis over time, gel bands (OprD mutant L8rek#1): incubating enterokinase with the mutant L8rek#1 (SEQ ID NO: 22798) shows specific cleavage since band “a” disappears and band “b” becomes more apparent over time
proteolysis over time, gel bands [1]: Incubation of enterokinase with the wild type OprD yields a non specific band, that does not increase over time

human matrix metalloproteases seven (MMP-7, Calbiochem, cat #444270) (from UniProt P09237 95-267) (enzyme)
inward ionic current, whole-cell patch clamp of HEK293T cells expressing FhuA7/10-1 after addition of MMP-7 [2]: 20000 >=

B1: human matrix metalloproteases seven (MMP-7, Calbiochem, cat #444270) (protein)
chain: YSLFPNSPKWTSKVVTYRIVSYTRDLPHITVDRLVSKALNMWGKEIPLHFRKVVWGTADIMIGFARGAHGDSYPFDGPGNTLAHAFAPGTGLGGDAHFDEDERWTDGSSLGINFLYAATHELGHSLGMGHSSDPNAVMYPTYGNGDPQNFKLSQDDIKGIQKLYGKRSNSRKK
cleavage kinetics 0 to 720 min, Western blot and densitometry [3]: the amount of uncleaved protein (˜81 kDa, indicated by ‘a’) decreases while the amount of the cleaved one increases (˜57 kDa, indicated by ‘b’); after 12 hours all His-tagged polypeptides (˜81 kDa) completely disappear along with the ˜57- and ˜37-kDa bands
cleavage of membrane-integrated FhuA7/10-1, Western blot with anti-His5 [3]: Incubation of the membranes with human MMP-7 for 30 minutes at 37 °C resulted in the appearance of ˜57- and ˜37-kDa bands
proteolysis, gel bands [4]: incubating mmp7 with the mutant L8 mmp7turk#3 (SEQ ID NO: 22836) shows cleavage as the main protein band disappears
cleavage, Western blot [5]: the native protein (solubilized in DDM) was not cleaved in the presence of MMP-7 (concentration 0.25 Units per 16 ug of total protein)
proteolysis, gel bands [6]: Incubation of MMP7 with wild type OprD yields a few non specific bands, compared with the control sample held at the same temperature for 24 hours but with out the MMP7
